Experimental data published in article PMC4039629.

Experiments:
GST-MYC(1-263) (human) = test: pull-down + cross-linking
[1] = target: GST-MYC(2-108) E100A (human); test: pull-down
[2] = target: GST-MYC(2-108) E[54,100]A (human); test: pull-down
[3] = target: GST-MYC(2-108) E54A (human); test: pull-down
GST-MYC 1-98 (human) = test: pull-down

percent of the protein in the extract crosslinked (GST-MYC(1-263) (human)) [%]	percent reduction of GCN5 binding against wt GST-MYC(2-108) [1] [%]	percent reduction of GCN5 binding against wt GST-MYC(2-108) [2] [%]	percent reduction of GCN5 binding against wt GST-MYC(2-108) [3] [%]	percent reduction of GCN5 binding on deletion of residues 99-108 (GST-MYC 1-98 (human)) [%]	Substance
1					GCN5 acetyltransferase, endogenous in HeLa cells (from UniProt Q92830 1-837) (enzyme)
	20	50	40	90	purified recombinant human GCN5-S (pRSETA-His6-GCN5-S) (enzyme)
1					transcription/transformation-associated protein (TRRAP), endogenous in HeLa cells (from UniProt Q9Y4A5 1-3859) (natural protein)
